Like-named read-outs stand apart in the source and are kept apart here.
Assays:
Assay in all cases: fluorescence anisotropy
[1] = target: htCREBD,4 (unphosphorylated) (UniProt P15337-1 1-341, C90A;V118D;C300S;C310S;C337S;del162-272)
[2] = target: T1, CREB bZip (Rattus norvegicus, UniProt P15337-1 270-341, C300S;C310S;C337S)
T1 sequence: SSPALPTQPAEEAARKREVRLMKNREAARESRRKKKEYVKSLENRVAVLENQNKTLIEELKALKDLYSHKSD

[3] = target: T1, CREB bZip; remark: listed apart in the source

B1: half-site CRE 14-mer (dsDNA)
DNA 1: ATCTGCGTCAGAGT
DNA 2: ACTCTGACGCAGAT
[1]
  binding result: binds
[2]
  Kd: ~38 nM
[3]
  Kd: ~32 nM
